As usually defined, the Ki is a measure of affinity in units of concentration, obtained from inhibition or displacement. In general, Kd refers to the constant that tells how readily two partners part at equilibrium.

Here are results for two molecules from PMC10625600, “A TRIM21-based bioPROTAC highlights the therapeutic benefit of HuR degradation”.

The target of data set [1] is T1, HuR full-length (UniProt Q15717 1-326). Briefly: competition fluorescence polarisation; 8 nM HuR, 8 nM Msi1-FITC probe N1 displaced; FP: 10 mM HEPES pH 7.4, 150 mM NaCl, 3 mM EDTA, 0.05% Tween-20; competition 5 min at room temperature; SPR: Biacore 8K, streptavidin chip, buffer not given in the material. The settings on record: protein: recombinant; tags: Avi-tag, TEV-cleavable His-tag; single-stranded. (Fluorescence polarisation rises when a labelled molecule tumbles more slowly, as on binding a larger partner.)
T1 sequence (Q15717 whole entry): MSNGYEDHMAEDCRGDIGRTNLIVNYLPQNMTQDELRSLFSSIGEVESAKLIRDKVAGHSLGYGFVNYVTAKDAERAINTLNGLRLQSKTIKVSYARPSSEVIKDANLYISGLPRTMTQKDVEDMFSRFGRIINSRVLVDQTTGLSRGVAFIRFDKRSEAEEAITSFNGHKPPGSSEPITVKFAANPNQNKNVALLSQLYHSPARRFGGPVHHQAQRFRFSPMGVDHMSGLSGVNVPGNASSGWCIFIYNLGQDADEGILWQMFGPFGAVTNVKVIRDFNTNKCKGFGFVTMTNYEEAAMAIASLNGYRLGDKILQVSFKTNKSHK

The target in data set [2] is T1, HuR full-length. Put plainly: fluorescence polarisation; 10 nM probe, 0-2000 nM HuR; FP: 10 mM HEPES pH 7.4, 150 mM NaCl, 3 mM EDTA, 0.05% Tween-20; competition 5 min at room temperature; SPR: Biacore 8K, streptavidin chip, buffer not given in the material. The following applies: protein: recombinant; tags: Avi-tag, TEV-cleavable His-tag; label: 3' fluorescein (3FluorT; printed after the 3' G, may add a labelled T); single-stranded.

B1: unlabelled Msi1 RNA (ssRNA)
RNA: GCUUUUAUUUAUUUUG
B1: the Ki in the data set with HuR full-length [1] was 4 nM.

B2: Msi1-FITC RNA probe (ssRNA)
RNA: GCUUUUAUUUAUUUUG
Turning to B2, in the data set with HuR full-length [2], the Kd was 3.7 nM.
